B1: POU domain, class 3, transcription factor 1, residues 247 to 324; numbered along this chain, Q03052 (parent)
chain: EDAPSSDDLEQFAKQFKQRRIKLGFTQADVGLALGTLYGNVFSQTTICRFEALQLSFKNMCKLKPLLNKWLEETDSSS

Variants of: B1
Test: abundance fitness (aPCA) (normalised: wild type 0, dead -1); higher = more abundant; growth selection in yeast, the domain comes from the species named
Conditions: Homo sapiens

Abundance fitness, by site and new letter:
S43: H -0.108; C -0.485; P -0.007; N 0.045; T -0.04; F -1.04; V -0.835; R -0.329; G -0.297; L -0.872; M -0.63; Y -0.389; K -0.234; D 0.17; W -0.371; A -0.378
A33: E 0.047; P -0.645; H -0.332; T -0.405; F -0.105; Y -0.221; D -0.504; W -0.195; C -0.474; I -0.317; V -0.255; Q 0.096; L 0.003; N -0.075; K -0.067
T46: R -0.509; V -0.096; Y -0.037; I -0.121; L -0.279; S -0.191; H -0.261; C -0.64; D 0.118; N -0.373; A -0.125; P -0.533; Q -0.314; K -0.304; M 0.069
I47: R -0.555; V -0.228; S -0.736; E -1.12; G -0.751; C -0.294; D -1.24; H -0.944; P -0.661; W -0.408; L -0.304; Q -0.954; M -0.69; A -0.765; T -0.883
Y38: C -0.029; V -0.031; Q -0.173; A -0.153; W -0.43; D -0.058; K -0.153; M -0.486; N 0.019; L -0.418; E -0.332; P -0.44; I 0.108; H -0.014; S -0.026; R -0.383; F -0.13
G35: T 0.236; W -0.439; K -0.125; S 0.064; Q -0.125; Y -0.313; F -0.211; M -0.4; A -0.097; V -0.641; D -0.571; C -0.299; P -1.13; R 0.005; H -0.37
T45: G -0.076; L -0.102; I -0.557; Q 0.167; A -0.023; F -0.016; H -0.055; S -0.017; W -0.443; E 0.185; V -0.148; M -0.205; R 0.016; D 0.254; C -0.346; Y -0.304; N 0.112; P -0.434
Q44: H -0.046; V -0.209; D 0.195; A 0.119; L -0.502; I -0.472; W -0.55; F -0.323; S 0.025; G 0.03; Y -0.266; M -0.262; C -0.515; R -0.067; K 0.041; T 0.118; N 0.01; P 0.132; E 0.266
F42: I 0.231; W -0.191; H -0.226; G -0.594; T -0.071; R -0.493; V 0.064; K -0.656; P -0.265; D -0.295; N -0.597; M 0.014; L -0.043; S -0.365; Y 0.048; Q 0.001; E -0.114
E51: A -0.65; D -0.381
T36: R 0.089; E 0.158; H -0.299; K 0.111; G -0.166; F -0.659; L -0.154; W -0.532; Q 0.032; N -0.025; Y -0.416; S 0.134; M 0.02; I -0.178; P -0.262; C -0.18; A -0.162; D 0.112; V -0.36
C48: D 0.307; A 0.129; T -0.086; L -0.04; Y -0.312; G 0.032; S 0.144; E 0.174; N -0.21; Q 0.064; F 0.068; W -0.37; P -0.175; V -0.151; K -0.011; I 0.094; H -0.021
G31: Q -0.337; M -0.494; E -0.18; T -0.085; K -0.702; Y -0.957; P -0.983; N -0.437; S 0.04; H -0.228; R -0.46; V -0.262; A 0.161; W -0.444; L -0.509; D -0.417
L32: G -0.372; H 0.033; K 0.086; Q 0.148; Y -0.148; C 0.095; P -0.898; M -0.039; N -0.371; S 0.152; R 0.122; E -0.017; V -0.183; D 0.182; W -0.185; F 0.186; I 0.163
V30: E -0.601; N -0.281; P -0.787; R -0.975; F -0.485; H -0.303; G -0.957; T -0.807; K -0.425; L -0.175; A -0.411; W -0.386; M -0.65; C -0.319; I -0.055; Q -0.759
D29: W -0.631; V -0.679
N40: Y -0.282; V -0.131; S 0.004; W -0.244; P -0.276; A -0.179; K 0.263; G 0.008; Q 0.103; F -0.167; R 0.07; T 0.031; M -0.126; H -0.179; D 0.062; I -0.117; L -0.237; E 0.031
V41: A -0.018; I 0.025; Y -0.079; P 0.087; H 0.253; F -0.427; K 0.141; D -0.141; L -0.127; M 0.03; R -0.035; E 0.058; N 0.116; G 0.016; Q 0.093; S 0.05; C -0.142
G39: L -0.751; S -0.258; D -0.192; P -0.124; T -0.196; C -0.523; H 0.144; M -1.04; R -0.198; N -0.213; W -0.421; A -0.365; V -0.846; E -0.344; I -0.488
L34: G -0.866; T -0.311; P -0.772; R -0.844; C -0.397; D -0.415; W -0.914; A -0.42; M -0.158; I -0.536; F -0.408; V -0.464; S -0.859; K -0.698
L37: F -0.06; E -0.062; I 0.11; S -0.261; M 0.097; G -0.275; Q -0.054; D -0.35; V -0.198; K 0.137; Y 0.175; N -0.333; W -0.251; H 0.133; C 0.206
R49: W 0.051
F50: G -0.736; S -0.802; P -0.484; Q -0.498; V -0.561; W -0.742; A -0.826; K -0.903; H -1.09; M -0.597; E -0.299; N -0.874; Y -0.089; R -0.785; D -0.993; I -0.556; C -0.943; L -0.718
